pKd: −log10 of the molar value.
Legend:
HLA-A*11:01 [1] = test: IEDB peptide-MHC binding, purified MHC/competitive/fluorescence; filed as Kd, often an IC50 or EC50 that approximates it; ≥ and ≤ were set here for values at or beyond the usual limits of such assays; conditions: source organism: Vaccinia virus WR
HLA-A*30:01 = test: as above; conditions: source organism: Vaccinia virus WR
HLA-A*02:06 = test: as above; conditions: source organism: Vaccinia virus WR
HLA-B*39:01 [2] = test: as above; conditions: source organism: Vaccinia virus WR
HLA-A*31:01 [3] = test: as above; conditions: source organism: Vaccinia virus WR
HLA-B*18:01 [4] = test: as above; conditions: source organism: Vaccinia virus WR
HLA-A*68:02 [5] = test: as above; conditions: source organism: Vaccinia virus WR
HLA-A*26:02 [6] = test: as above; conditions: source organism: Vaccinia virus WR
HLA-B*57:01 = test: IEDB peptide-MHC binding, purified MHC/direct/fluorescence; filed as Kd, often an IC50 or EC50 that approximates it; ≥ and ≤ were set here for values at or beyond the usual limits of such assays
HLA-A*24:03 = test: as above; conditions: source organism: Camelpox virus M-96
HLA-C*07:02 = test: as above; conditions: source organism: Vaccinia virus WR
HLA-B*15:17 = test: as above
HLA-B*58:01 = test: as above
HLA-A*01:01 = test: as above
HLA-A*69:01 = test: as above
HLA-B*07:02 = test: as above
HLA-B*15:01 = test: as above; conditions: source organism: Camelpox virus M-96
HLA-A*02:01 = test: as above
HLA-B*08:01 = test: as above; conditions: source organism: Giardia lamblia ATCC 50803
HLA-B*08:02 = test: as above; conditions: source organism: Giardia lamblia ATCC 50803
HLA-B*48:01 = test: as above; conditions: source organism: Giardia lamblia ATCC 50803
HLA-B*27:05 = test: as above; conditions: source organism: Giardia lamblia ATCC 50803
HLA-B*40:01 = test: as above; conditions: source organism: Giardia lamblia ATCC 50803
HLA-A*11:01 [7] = test: as above; conditions: source organism: Giardia lamblia ATCC 50803
HLA-B*08:03 = test: as above; conditions: source organism: Giardia lamblia ATCC 50803
HLA-A*26:03 = test: as above; conditions: source organism: Giardia lamblia ATCC 50803
HLA-B*39:01 [8] = test: as above; conditions: source organism: Giardia lamblia ATCC 50803
HLA-A*31:01 [9] = test: as above; conditions: source organism: Giardia lamblia ATCC 50803
HLA-B*18:01 [10] = test: as above; conditions: source organism: Giardia lamblia ATCC 50803
HLA-A*68:02 [11] = test: as above; conditions: source organism: Giardia lamblia ATCC 50803
HLA-A*26:02 [12] = test: as above; conditions: source organism: Giardia lamblia ATCC 50803
[13] = source organism: Camelpox virus M-96
[14] = source organism: Giardia lamblia ATCC 50803

For NYFNRMFHF, the pKd (HLA-A*11:01 [1]) was ≤ 4.70, the pKd (HLA-A*30:01) was 5.49 and the pKd (HLA-A*02:06) was 5.47. The pKd (HLA-B*39:01 [2]) was 5.52, the pKd (HLA-A*31:01 [3]) was 5.64 and the pKd (HLA-B*18:01 [4]) was 6.05. The pKd (HLA-A*68:02 [5]) was ≤ 4.70, the pKd (HLA-A*26:02 [6]) was ≤ 4.70 and the pKd (HLA-B*57:01; [13]) was ≤ 4.70. For the same sequence, the pKd (HLA-A*24:03) was 8.37, the pKd (HLA-C*07:02) was 8.52 and the pKd (HLA-B*15:17; [13]) was ≤ 4.70. The pKd (HLA-B*58:01; [13]) was ≤ 4.70, the pKd (HLA-A*01:01; [13]) was ≤ 4.70 and the pKd (HLA-A*69:01; [13]) was ≤ 4.70. For the same sequence, the pKd (HLA-B*07:02; [13]) was ≤ 4.70, the pKd (HLA-B*15:01) was ≤ 4.70 and the pKd (HLA-A*02:01; [13]) was ≤ 4.70.
In the case of RENQVAVVR, the pKd (HLA-B*08:01) was ≤ 4.70, the pKd (HLA-B*08:02) was ≤ 4.70 and the pKd (HLA-B*48:01) was ≤ 4.70. The pKd (HLA-B*57:01; [14]) was ≤ 4.70, the pKd (HLA-B*15:17; [14]) was ≤ 4.70 and the pKd (HLA-B*27:05) was ≤ 4.70. For the same sequence, the pKd (HLA-B*40:01) was ≤ 4.70, the pKd (HLA-A*11:01 [7]) was ≤ 4.70 and the pKd (HLA-B*58:01; [14]) was ≤ 4.70. For the same sequence, the pKd (HLA-A*01:01; [14]) was ≤ 4.70, the pKd (HLA-B*08:03) was ≤ 4.70 and the pKd (HLA-A*26:03) was ≤ 4.70. The pKd (HLA-A*69:01; [14]) was ≤ 4.70, the pKd (HLA-B*07:02; [14]) was ≤ 4.70 and the pKd (HLA-B*39:01 [8]) was ≤ 4.70. For the same sequence, the pKd (HLA-A*31:01 [9]) was ≤ 4.70, the pKd (HLA-B*18:01 [10]) was ≤ 4.70 and the pKd (HLA-A*68:02 [11]) was ≤ 4.70. For the same sequence, the pKd (HLA-A*26:02 [12]) was ≤ 4.70 and the pKd (HLA-A*02:01; [14]) was ≤ 4.70.

— the Immune Epitope Database (IEDB)
